How the values were obtained:
Experiment in all cases: double-antibody sandwich ELISA, R001 as detection antibody, against reference products of the different expression systems
[1] = target: E1.16 HPV16 VLPs (Human papillomavirus type 16) (UniProt P03101)
[2] = target: E2.16 HPV16 VLPs (Human papillomavirus type 16) (UniProt P03101)
[3] = target: I1.16 HPV16 VLPs (Human papillomavirus type 16) (UniProt P03101)
[4] = target: Y1.16 HPV16 VLPs (Human papillomavirus type 16) (UniProt P03101)
[5] = target: Y2.16 HPV16 VLPs (Human papillomavirus type 16) (UniProt P03101)

Measured: 抗原/蛋白比值

B1: HPV 16 R001 (antibody, V domains shown)
VH: QSVKESEGRLVTPGTPLTLTCTASGFTMSRYHMTWVRQAPGKGLEWIGIIYARNSDTYYANWAKGRFTISKTSTTVDLKITSPTIEDTATYFCARVDSDSSGAFDRLDLWGQGTLVTVSS
VL: DPMLTQTAASVEVAVGGTVTIKCQASQSIGGYLSWYQQKPGQRPKLLIYRASTLASGVPSRFKGSGSGTEYTLTFSGVECADAAAYYCQQGYTSSDINNAFGGGTEVVVK
1: all assays above

Reference: CN112125972A
